Experimental data taken from US20180362668A1 (JIANGSU ALPHAMAB BIOPHARMACEUTICALS, published 2018).
Changes are numbered by the printed parent chain. In names and notes the source's numbering stands.

How the values were obtained:
[1] = molecular target: the molecule itself; test: non-reducing SDS-PAGE densitometry of Protein A-purified co-transfection product; chain A:chain B vectors 1:1
Description: The cotransfection ratio of recombinant expression vector of the chain A to that of the chain B was 1:1.

[2] = molecular target: the molecule itself; test: as above; remark: listed apart in the source
Description: (§1) The cotransfection ratio of recombinant expression vector of the chain A to that of the chain B was 4:1, 1:1 and 1:4.

[3] = molecular target: the molecule itself; test: non-reducing SDS-PAGE densitometry of Protein A-purified co-transfection product; chain A:chain B vectors 4:1
Description: as §1

[4] = molecular target: the molecule itself; test: non-reducing SDS-PAGE densitometry of Protein A-purified co-transfection product; chain A:chain B vectors 1:4
Description: as §1

[5] = molecular target: the molecule itself; test: non-reducing SDS-PAGE densitometry of Protein A-purified co-transfection product; chain A:chain B vectors 1:1; remark: listed apart in the source
Description: (§2) The cotransfection ratio of recombinant expression vector of the chain A to that of the chain B was 4:1, 1:1 and 1:4. The transiently expressed culture supernatant was collected after 5-6 days of cultivation.

[6] = molecular target: the molecule itself; test: non-reducing SDS-PAGE densitometry of Protein A-purified co-transfection product; chain A:chain B vectors 4:1; remark: listed apart in the source
Description: as §2

[7] = molecular target: the molecule itself; test: non-reducing SDS-PAGE densitometry of Protein A-purified co-transfection product; chain A:chain B vectors 1:4; remark: listed apart in the source
Description: as §2

B1: Fc protein chain B with D356C + T366S + L368A + Y407V + K360E + Q347E (other)
chain: DKTHTCPPCPAPELLGGPSVFLFPPKPKDTLMISRTPEVTCVVVDVSHEDPEVKFNWYVDGVEVHNAKTKPREEQYNSTYRVVSVLTVLHQDWLNGKEYKCKVSNKALPAPIEKTISKAKGQPREPEVYTLPPSRCELTENQVSLSCAVKGFYPSDIAVEWESNGQPENNYKTTPPVLDSDGSFFLVSKLTVDKSRWQQGNVFSCSVMHEALHNHYTQKSLSLSPGK
notes: also called combination 6 chain B
Proportion of Fc homodimer (%) [1]: 24%

B2: Fc protein chain B with D356C + T366S + L368A + Y407V + F405K + K360E + Q347E (other)
chain: B1 chain with F185K
notes: also called combination 8 chain B
Proportion of Fc homodimer (%) [1]: 8%

B3: Fc protein chain B with D356C + T366S + L368A + Y407V + F405K + Q347R (other)
chain: B1 chain with E127R, E140K, F185K
notes: also called combination 7 chain B
Proportion of Fc homodimer (%) [1]: 12%

B4: ScFv-Fc fusion protein chain A with Y349C + T366W + K409A + L368E (Fc fusion)
chain: EVQLLESGGGVVQPGRSLRLSCIASGFTFSSYPMTWVRQAPGKGLEWVASISYDGSYKYKADSMKGRLTISRDNSKNTLYLEMNSLTAEDTAVYYCARTAFFNAYDFWGQGTLVTVSSASTKGPSVGGGGSGGGGSEIVMTQSPATLSVSPGERATLSCRASQSVRSNLAWYQQKPGQAPRLLIYAASTRATGIPARFSGSGSGTEFTLTISSLQSEDFAVYYCQQYNEWFRTSGQGTKVEIKRDKTHTCPPCPAPELLGGPSVFLFPPKPKDTLMISRTPEVTCVVVDVSHENPEVKFNWYVDGVEVHNAKTKPREEQYNSTYRVVSVLTVLHQDWLNGKEYKCKVSNKALPAPIEKTISKAKGQPREPQVCTLPPSRDELTKNQVSLWCEVKGFYPSDIAVEWESNGQPENNYKTTPPVLDSDGSFFLYSALTVDKSRWQQGNVFSCSVMHEALHNHYTQKSLSLSPGK
notes: Positions are EU index; also called combination 9 chain A
ScFv-Fc homodimer (%) [1]: 39%

B5: ScFv-Fc fusion protein chain A with Y349C + T366W + F405K + Q347R (Fc fusion)
chain: B4 chain with Q371R, E392L, F429K, A433K
notes: Positions are EU index; also called combination 6 chain A
ScFv-Fc homodimer (%) [1]: 14%

B6: ScFv-Fc fusion protein chain A with Y349C + T366W + K409A + Q347R (Fc fusion)
chain: B4 chain with Q371R, E392L
notes: Positions are EU index; also called combination 8 chain A
ScFv-Fc homodimer (%) [1]: 21%

B7: ScFv-Fc fusion protein chain A with T366W + K409A (Fc fusion)
chain: B4 chain with C373Y, E392L
notes: Positions are EU index; also called combination 11 chain A
ScFv-Fc homodimer (%) [2]: 15%
ScFv-Fc homodimer (%) [3]: 52%
ScFv-Fc homodimer (%) [4]: 11%

B8: ScFv-Fc fusion protein chain A with Y349C + T366W + K409A + K360E + Q347E (Fc fusion)
chain: B4 chain with Q371E, K384E, E392L
notes: Positions are EU index; also called combination 7 chain A
ScFv-Fc homodimer (%) [1]: 24%

B9: ScFv-Fc fusion protein chain A with T366W + F405K + Y349D + S354D (Fc fusion)
chain: B4 chain with C373D, S378D, E392L, F429K, A433K
notes: Positions are EU index; also called combination 18 chain A
ScFv-Fc homodimer (%) [5]: 9%
ScFv-Fc homodimer (%) [6]: 29%
ScFv-Fc homodimer (%) [7]: 5%

B10: ScFv-Fc fusion protein chain A with Y349C + T366W + F405K + K360E + Q347E (Fc fusion)
chain: B4 chain with Q371E, K384E, E392L, F429K, A433K
notes: Positions are EU index; also called combination 5 chain A
ScFv-Fc homodimer (%) [1]: 14%

B11: ScFv-Fc fusion protein chain A with T366W + K409A + Y349D (Fc fusion)
chain: B4 chain with C373D, E392L
notes: Positions are EU index; it is not used here; also called combination 12 chain A
ScFv-Fc homodimer (%) [2]: 14%
ScFv-Fc homodimer (%) [3]: 48%
ScFv-Fc homodimer (%) [4]: 9%

B12: ScFv-Fc fusion protein chain A with T366W + K409A + K392D (Fc fusion)
chain: B4 chain with C373Y, E392L, K416D
notes: Positions are EU index; also called combination 10 chain A
ScFv-Fc homodimer (%) [2]: 7%
ScFv-Fc homodimer (%) [3]: 39%
ScFv-Fc homodimer (%) [4]: < 1%

B13: ScFv-Fc fusion protein chain A with T366W + F405K (Fc fusion)
chain: B4 chain with C373Y, E392L, F429K, A433K
notes: Positions are EU index; also called combination 16 chain A
ScFv-Fc homodimer (%) [5]: 5%
ScFv-Fc homodimer (%) [6]: 23%
ScFv-Fc homodimer (%) [7]: 3%

B14: ScFv-Fc fusion protein chain A with T366W + F405K + D399S (Fc fusion)
chain: B4 chain with C373Y, E392L, D423S, F429K, A433K
notes: Positions are EU index; also called combination 15 chain A
ScFv-Fc homodimer (%) [5]: 6%
ScFv-Fc homodimer (%) [6]: 28%
ScFv-Fc homodimer (%) [7]: < 1%

B15: ScFv-Fc fusion protein chain A with T366W + K409A + Y349D + S354D (Fc fusion)
chain: B4 chain with C373D, S378D, E392L
notes: Positions are EU index; also called combination 13 chain A
ScFv-Fc homodimer (%) [2]: 10%
ScFv-Fc homodimer (%) [3]: 37%
ScFv-Fc homodimer (%) [4]: 2%

B16: VhH-Fc fusion protein chain B with T366S + L368G + Y407A + K409A (Fc fusion)
chain: QVQLQESGGGSVQAGGSLRLSCAASEYIYSSYCMAWFRQAPGKEREGVAVIGSDGSTSYADSVKGRFTISKDNAKNTLYLQMNSLKPEDTAMYYCAAIGGYCYQPPYEYQYWGQGTQVTVSSEPKSSDKTHTCPPCPAPELLGGPSVFLFPPKPKDTLMISRTPEVTCVVVDVSHEDPEVKFNWYVDGVEVHNAKTKPREEQYNSTYRVVSVLTVLHQDWLNGKEYKCKVSNKALPAPIEKTISKAKGQPREPQVYTLPPSRDELTKNQVSLSCGVKGFYPSDIAVEWESNGQPENNYKTTPPVLDSDGSFFLASALTVDKSRWQQGNVFSCSVMHEALHNHYTQKSLSLSPGK
notes: Positions are EU index; also called combination 16 chain B
VhH-Fc homodimer (%) [5]: 7%
VhH-Fc homodimer (%) [6]: < 1%
VhH-Fc homodimer (%) [7]: 4%

B17: VhH-Fc fusion protein chain B with T366S + L368G + Y407A + F405K (Fc fusion)
chain: B16 chain with F312K, A316K
notes: Positions are EU index; also called combination 11 chain B
VhH-Fc homodimer (%) [2]: 0%
VhH-Fc homodimer (%) [3]: 0%
VhH-Fc homodimer (%) [4]: 0%
